± gives the half width of the 95% confidence interval.
What was measured:
[1] = folding stability dG unfold from trypsin proteolysis; higher = more stable
In short: (§1)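 Designed mini-proteins (under 80 residues, no cysteine) in a PA-tagged cDNA display construct were digested with trypsin and chymotrypsin. Each protease was used at 11 concentrations (threefold dilutions) plus a no-protease condition, followed by sequencing. K50 was inferred by Bayesian fitting of sequencing counts, and unfolding free energy was derived against a sequence-predicted unfolded-state K50 and a shared folded-state K50, per protease or combined. Only designs with AlphaFold2 dimer inter-PAE above 15 were kept.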

[2] = folding stability dG unfold from chymotrypsin proteolysis; higher = more stable
In short: as §1

[3] = folding stability dG unfold (combined trypsin and chymotrypsin); higher = more stable
In short: as §1

Row | Sequence | folding stability dG unfold [1] [kcal/mol] | folding stability dG unfold [2] [kcal/mol] | folding stability dG unfold [3] [kcal/mol]
1 | SAGMEEEEVVLKIRVKDPETGEEKTFEVKLKDIEKVEVDEDGNIRIYLKEDGKEITIPADKITEVELLSAGG [r19_416_TrROS_Hall] | 3.15 ± 0.11 | 3.86 ± 0.059 | 3.71 ± 0.089
2 | SAGMEELAEELAKELEGEGLKVEVEVDPETGVVTVTAYSPESVTVVTITQDPNNDAFTVNTTTYPPLLSAGG [r19_2_JUSTAS] | 3.07 ± 0.083 | 2.95 ± 0.061 | 3.02 ± 0.059
3 | SAGMEIKYTITVSLSSGQTLGTKTITDPGKSIEEIVKEFAKIPGLTLITVTVTNPDGTPTTVTIPVNPSAGG [r19_269_JUSTAS] | 2.24 ± 0.059 | 3.072 ± 0.022 | 2.79 ± 0.051
4 | SAGMEITTVTLPDGTKLITITLPVPGGPSITADVPYDPATGKVTLLKITGEDPALEALAKEAVEKLKKESAG [r5_266_JUSTAS] | 0.68 ± 0.032 | 1.17 ± 0.053 | 1.09 ± 0.11
5 | SAGMEITVPGPFLSQEVFDLPDRPYLVLPTPEGIAVIDLVTGEAVFYPFGTTEPIVVPVPPGEELDLLSAGG [r19_138_TrMRF] | 1.73 ± 0.091 | 1.97 ± 0.042 | 1.83 ± 0.088
6 | SAGMEKVKLTFKTEDGSEVEIEIVKNEDGSYFVKVKVDKENQEIYVFNADGELIEKIKVKSLEDALKALSAG [r5_757_TrROS_Hall] | 1.69 ± 0.063 | 3.19 ± 0.052 | 2.73 ± 0.12
7 | SAGMEPTTITVDVTIPPEVFARLSEEELKEKVLAELGIPESLPVEVEISRKEVKLDGKTVYVVPMTIVGSAG [r14_334_JUSTAS] | 0.117 ± 0.085 | 0.652 ± 0.11 | 0.407 ± 0.089
8 | SAGMEPVSIKITKIEKTPENKDYVIVTVTPPDGVPTEIKVPIEFYKSGKLKNATAEELVKLFPEYKLESAGG [r19_74_JUSTAS] | 1.13 ± 0.065 | 2.68 ± 0.045 | 2.28 ± 0.12
9 | SAGMETVKIKVRVKVTVRERLPDGTVKTREFELTLEIEVEVEPGQTAEELAKKLAEEFNIEEVEIEKVPSAG [r5_994_TrROS_Hall] | 2.57 ± 0.19 | 3.83 ± 0.58 | 3.29 ± 0.38
10 | SAGMEVEWEIGDADEDGYVRLTVKAVLLIPETGKPVVVEAEIKMPIEELENEEVLKELARKVVEEAEAESAG [r5_964_TrMRF] | 1.4 ± 0.037 | 2.1 ± 0.032 | 1.85 ± 0.086
11 | SAGMEVKVETVTIEIEVDGKKIEIKVVRVEVRNEDGSIYEFTFIEITVPEDVSEEELRKLLEELGLEPESAG [r5_486_TrROS_Hall] | 2.64 ± 0.12 | 4.1 ± 0.31 | 3.77 ± 0.29
12 | SAGMFVKIKFKTADKTVEELVKKIKEETGIPENAKITVIAEKSEDEGFVVIIEFDEEEVRDKIKEIVGSAGG [r19_215_TrMRF] | 1.52 ± 0.026 | 1.35 ± 0.062 | 1.45 ± 0.087
13 | SAGMGATLVSESEEEIDSSGVRKLTYRSPGSLLVETLYPDGTVPVYVIDPSTGKVVEERVFHVPPDVPLSAG [r14_676_JUSTAS] | 0.179 ± 0.13 | 0.166 ± 0.17 | 0.204 ± 0.13
14 | SAGMIEILELPPNKAIVKIYDPKTGKFEIIEIDFGGKDGKPLSLEELIEKIKKLAKELYPDLEINVTPLSAG [r5_293_TrMRF] | 3.28 ± 0.26 | 1.98 ± 0.063 | 2.61 ± 0.17
15 | SAGMIEISEEGDTLTVTVPPGVSLEEVREYVEKKYPGMDLQEITETALPDGTTTVTFNVKKNPPSPKLLSAG [r5_110_JUSTAS] | -0.658 ± 0.37 | 0.699 ± 0.23 | 0.316 ± 0.16
16 | SAGMIEITLYPPKAVVDVTVTIGGESESRTIPVDGKSKEEVIEEAREEVKAEYPDKAITTKVTEVPGDGSAG [r5_180_JUSTAS] | -0.437 ± 0.18 | 1.03 ± 0.098 | 0.641 ± 0.071
17 | SAGMIKPEEIVEKVKAIFEEEGLENVTVKVYYDEETDEIFVEVEVELEPEEEEKAQAILDKIKKELGLESAG [r5_9_TrMRF] | 3.02 ± 0.29 | 2.38 ± 0.23 | 2.85 ± 0.21
18 | SAGMIKVEVVVPPEDPSKPPSEEELRALAEEVVRELGLDPAKHPIEIKREVVDPEKGVLRYTITVKLPSAGG [r19_244_JUSTAS] | 3.09 ± 0.092 | 2.87 ± 0.069 | 2.96 ± 0.11
19 | SAGMIKVEVYTLDPNGVLTKETYEIPLLPGTPIEEVVNELTEPGTGAVEIVEYNPPPPEIKIKIVRFPASAG [r5_227_TrMRF] | 1.48 ± 0.43 | 2.94 ± 0.09 | 2.49 ± 0.23
20 | SAGMILPPNTVVTLSTTTTEELPLFTDGSGPRTTTTETVVTVEPVPVNPYPDPAVREKLLAEGKPLELLSAG [r5_624_JUSTAS] | -0.513 ± 0.13 | -0.207 ± 0.13 | -0.265 ± 0.12
21 | SAGMIRIIVDGKEVEEIEMSEEELRALLADPNIKKARVFVNGEEKEVEVKEGEIKEKLPPGAVIRIEKSAGG [r19_152_TrROS_Hall] | 1.45 ± 0.061 | 2.04 ± 0.031 | 1.79 ± 0.12

Row | Sequence | folding stability dG unfold [1] [kcal/mol] | folding stability dG unfold [2] [kcal/mol] | folding stability dG unfold [3] [kcal/mol]
22 | SAGMITPEELEERIRKLAEETGGPRYRVKVRGPDGPLYEFEVGFTPEEIERLAKELGVDIVEVEPIPESAGG [r19_50_TrMRF] | 2.97 ± 0.085 | 3.07 ± 0.13 | 3 ± 0.11
23 | SAGMKIKITLPNGAEFESNPETGKIEVIDPETGKPLIAYIPKDRPDIAFIFDPDNPKPLFEVKIDEIYPSAG [r5_761_TrMRF] | 0.889 ± 0.016 | 1.27 ± 0.042 | 1.11 ± 0.051
24 | SAGMKIRILILGKGDPAQVEALAKELEAKLKEELGTEDVEVETLPASLTEEAAEERAKEEKVDIVVYESAGG [r19_89_JUSTAS] | 0.85 ± 0.045 | 1.08 ± 0.13 | 0.99 ± 0.09
25 | SAGMKITVKAVLKKGEKEYEVEFEADSLEEIIGAILELYEKLNFDELRVKIKIGDKEYEIELPFLIPDESAG [r5_946_TrMRF] | 4.28 ± 0.41 | 4.2 ± 0.68 | 4.24 ± 0.94
26 | SAGMKKLPSEEERKKAEELAKKGELVIIIRLKNGEKLVIVVKSEEELKELLKKLPLEIEEIYVFKVKKKSAG [r5_481_TrROS_Hall] | 1.72 ± 0.028 | 2.26 ± 0.049 | 2.07 ± 0.16
27 | SAGMKKTITIKIEVPEKPIRIIVEKNGKKEEITIKPGETVTIEIELEPGETLRIRIVNEDGEEFEFEIKSAG [r5_187_TrROS_Hall] | 4.15 ± 0.3 | 3.45 ± 0.12 | 3.68 ± 0.28
28 | SAGMKKVEIVEEVKDPETNEPVILVRDKDTGELVKFHPNGKVTIYDLNDPNKAKVFEAKISDVLEELANSAG [r5_491_TrMRF] | 0.622 ± 0.071 | 1.28 ± 0.19 | 0.847 ± 0.21
29 | SAGMKLTVTITDPATGKTYTITVKPGGETTVTNGSSTTSISIPTSDPKKVEELAEEIEPKGYTATITLESAG [r5_791_JUSTAS] | 1.17 ± 0.018 | 1.36 ± 0.17 | 1.3 ± 0.086
30 | SAGMKPLSDPEAQELAKEVAEKGYLVYTLKYPDGTVITVVSKSEEEVEALLEKSPYPIKEIVIIPPEKPSAG [r5_481_JUSTAS] | 1.16 ± 0.082 | 1.74 ± 0.098 | 1.48 ± 0.12
31 | SAGMKSLTITETVTDPNSDNPITIITDPVTGKVIKLYPDGTATVYDPNNPNKSTTYKMSPEEVIEKMSSSAG [r5_491_JUSTAS] | 0.0921 ± 0.053 | 0.967 ± 0.088 | 0.673 ± 0.061
32 | SAGMKTYTITVPASEAEEAAEKAAEEIKKELGLPDSDTVEVTVTSYDPKTGTVTITITVTRPLPGGLSLSAG [r5_537_JUSTAS] | 2.74 ± 0.13 | 1.76 ± 0.084 | 2.19 ± 0.2
33 | SAGMKVPVTVKMKAEKEEELEKVIKEIKEETGFEFEVEKNPETKEYTVKVYATPEVVEILKKKGFDVESAGG [r19_306_TrMRF] | 1.9 ± 0.14 | 3.2 ± 0.081 | 2.77 ± 0.24
34 | SAGMKYTAEVKVKEKDKEIDVTVSDDATFTDPEGKETTFKIGSEEELKKALEEIFPEKYPYEILSVKVLSAG [r14_41_JUSTAS] | -0.65 ± 0.47 | 0.156 ± 0.18 | -0.0975 ± 0.2
35 | SAGMLEISSDVLKALGIPVGATAEEVKERIQRRLEELGFEVEIPSVVIEELDPETGRVGVRIDLDLRPPSAG [r5_23_TrMRF] | 3.05 ± 0.18 | 2.23 ± 0.35 | 2.5 ± 0.23
36 | SAGMLKVKIKIEIEKDGKKIELEKEIEAESEEELLKAAEELAKELEKKGIKIKKIEVEVEKIPEPEEEESAG [r5_660_TrROS_Hall] | 2.04 ± 0.12 | 2.77 ± 0.055 | 2.5 ± 0.12
37 | SAGMLSSETVPFPDSEITIEYDPETGTVKITTTTTTSSPSLDYRTGKPGSVSSSTTTSFEVEAEPGAELSAG [r5_195_JUSTAS] | 0.0129 ± 0.076 | 0.323 ± 0.17 | 0.254 ± 0.18
38 | SAGMLTYRFTVPAEEAEEAAEELAETLRRELGLPEEVKVEVKVVEYDPETGLVTVEAVVYRPLPEGVEPSAG [r5_537_TrMRF] | 4.21 ± 0.16 | 4.44 ± 0.11 | 4.5 ± 0.14
39 | SAGMMKFPPGAKIKIVNKETGEEKEITLPEGAEVEFDEETGEVHIRVKVDGKEYRFTFKNGEIVEVEEVSAG [r5_22_TrROS_Hall] | 3.23 ± 0.26 | 4.3 ± 0.066 | 3.73 ± 0.3
40 | SAGMMLIEVEKNGEPVEVAEVKDDEITITLPKEKVRIRIVNADTGEEVEAEATVEDGTITIKLPPGVKLSAG [r5_469_TrROS_Hall] | 0.669 ± 0.077 | -0.794 ± 0.45 | 0.232 ± 0.19
41 | SAGMMTIEIELKNGKKIKIEVEKKNGKYIIKITVYDKNGKKVKEVKIEVPKKNMSLEEIIKEALKKLLKSAG [r5_630_TrROS_Hall] | 2.83 ± 0.2 | 3.71 ± 0.28 | 3.73 ± 0.47
42 | SAGMMTVEELKEKLKEAAEKAGVKVKEIKITGPDGKEITVEVDLSEEQLKKLAEELGLEIDEVEVREPSAGG [r19_50_TrROS_Hall] | 1.3 ± 0.099 | 1.75 ± 0.092 | 1.67 ± 0.2

From the supplement of paper PMC12764529
